Assay results published in US20240190968A1 (HEFEI TG IMMUNOPHARMA, published 2024).
Values belong to the binder of their own block, whether it stands above or below them.

Tests used:
[1] = target: T1, B7H6 protein overexpressed in HL60 cells (human, UniProt Q68D85 25-454); assay: flow cytometry on HL60-B7H6 cells, Alexa-647 mouse anti-human IgG-Fc secondary antibody, binding ratio (%)
T1 construct: Full-length entry expressed from a lentiviral vector; also called HL60-B7H6
T1 sequence: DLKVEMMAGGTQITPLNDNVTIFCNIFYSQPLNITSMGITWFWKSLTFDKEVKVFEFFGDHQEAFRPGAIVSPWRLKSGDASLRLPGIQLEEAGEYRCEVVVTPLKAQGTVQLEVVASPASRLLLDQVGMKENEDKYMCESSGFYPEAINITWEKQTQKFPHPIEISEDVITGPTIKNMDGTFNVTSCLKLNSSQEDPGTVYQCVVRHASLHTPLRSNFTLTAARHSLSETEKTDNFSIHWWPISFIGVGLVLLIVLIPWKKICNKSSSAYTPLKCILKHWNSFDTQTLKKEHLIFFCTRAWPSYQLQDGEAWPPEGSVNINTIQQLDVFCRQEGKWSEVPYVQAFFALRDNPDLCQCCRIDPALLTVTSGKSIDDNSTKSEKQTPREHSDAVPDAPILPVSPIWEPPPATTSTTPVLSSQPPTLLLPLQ
Protocol: The flow cytometry assay was used to detect the binding characteristics of the B7H6 antibody. The B7H6 protein (HL60-B7H6) was overexpressed in HL60 cells (ATCC No. CCL-240) (as shown in Example 3), and the signal strength after antibody addition was used to determine the binding characteristics of the antibody and B7H6.
HL60-B7H6 cells were diluted to 2×10⁶/mL with PBS and added to a 1.5 mL EP tube in a volume of 100 μL/tube. 10 μL/tube of mouse serum was added thereto and was blocked at 4° C. for 30 min. The humanized B7H6 antibody was added at 1 μg/tube and incubated for 30 min at 4° C. The EP tube was added with 1 mL of PBS and centrifuged at 3500 rpm at 4° C. for 5 min. The supernatant was discarded and the precipitate was washed once more with PBS. After centrifugation, the supernatant was discarded. The cells were resuspended with 100 μL/tube of PBS, 1 μL/tube of Alexa-647-labeled mouse anti-human IgG-Fc secondary antibody (Biolegend) was added thereto, and incubated at 4° C., under the condition of avoiding light, for 30 min. The cell-containing precipitate was washed twice with PBS and the supernatant was discarded after centrifugation. The cells were resuspended with 200 μL/tube of PBS and detected by flow cytometry.

[2] = target: T2, recombinant Cynomolgus monkey B7H6 extracellular region Fc fusion protein (Cynomolgus monkey); assay: ELISA, cynoB7H6-Fc coated at 1 ug/mL, HRP mouse anti-human IgG (Fab-specific) secondary antibody, OD450
T2 construct: also called cynoB7H6-Fc; cynoB7H6-Fc fusion protein
Protocol: The ELISA assay was used to detect the binding characteristics of the humanized B7H6 antibody. The Cynomolgus monkey B7H6 extracellular Fc fusion protein (cynoB7H6-Fc) was coated into a 96-well plate. The signal strength after antibody addition was used to determine the binding characteristics of the antibody and monkey B7H6.
The cynoB7H6-Fc fusion protein (amino acid sequence as set forth in SEQ ID NO. 23) was diluted to 1 μg/mL with PBS buffer and added to a 96-well plate in a volume of 100 μL/well and left overnight at 4° C. The PBS buffer solution was sucked off from the 96-well plate. The plate was washed 6 times with PBST (pH 7.2, PBS containing 0.1% Tween 20) buffer solution. 200 μL/well of PBS/10% BSA was added and incubated at 37° C. for 2 hours for blocking. The blocking solution was removed. The plate was washed 6 times with PBST. B7H6 antibody to be tested which was diluted with PBST/0.05% BSA to an appropriate concentration was added at 100 µL/well, and incubated at 37° C. for 1 h. The reaction system was removed. The plate was washed 6 times with PBST. HRP (horseradish peroxidase)-labeled mouse anti-human IgG (Fab-specific) secondary antibody (Sigma) was diluted with PBST/0.05% BSA at 100 μL/well and incubated for 1 h at 37° C. […] The absorbance at […] was read with a microplate reader.

[3] = target: T3, recombinant B7H6 extracellular region Fc fusion protein (human); assay: ELISA, B7H6-Fc coated at 1 ug/mL, HRP mouse anti-human IgG (Fab-specific) secondary antibody, OD450
T3 construct: also called B7H6-Fc; B7H6-Fc fusion protein
Protocol: The ELISA assay was used to detect the binding characteristics of the humanized B7H6 antibody. The B7H6 extracellular region Fc fusion protein (B7H6-Fc) described above was coated into a 96-well plate. The signal strength after antibody addition was used to determine the binding characteristics of antibodies and B7H6.
The B7H6-Fc fusion protein (amino acid sequence as set forth in SEQ ID NO. 22) was diluted to 1 μg/mL with PBS buffer and added to a 96-well plate in a volume of 100 μL/well and left overnight at 4° C. The PBS buffer solution was sucked off from the 96-well plate. The plate was washed 6 times with PBST (pH 7.2, PBS containing 0.1% Tween 20) buffer solution. 200 μL/well PBS/10% BSA was added and incubated at 37° C. for 2 hours for blocking. The blocking solution was removed. The plate was washed 6 times with PBST. B7H6 antibody to be tested which diluted with PBST/0.05% BSA to an appropriate concentration was added at 100 µL/well, and incubated at 37° C. for 1 h. The reaction system was removed. The plate was washed 6 times with PBST. HRP (horseradish peroxidase)-labeled mouse anti-human IgG (Fab-specific) secondary antibody (Sigma) was diluted with PBST/0.05% BSA at 100 μL/well and incubated for 1 h at 37° C. The plate was washed 6 times with PBST, and 80 μL/well TMB (tetramethylbenzidine) was added. […] The absorbance at […] was read with a microplate reader.

[4] = target: T3, recombinant B7H6 extracellular region …; assay: ELISA, B7H6-Fc coated at 1 ug/mL, HRP anti-mouse secondary antibody, OD450
Protocol: The ELISA assay was used to detect the binding characteristics of the B7H6 antibody. The B7H6 extracellular region Fc fusion protein (B7H6-Fc) described above was coated into a 96-well plate. The signal strength after antibody addition was used to determine the binding characteristic of the antibody and B7H6.
The B7H6-Fc fusion protein (amino acid sequence as set forth in SEQ ID NO. 22) was diluted to 1 μg/mL with PBS buffer and added to a 96-well plate in a volume of 100 μL/well and left overnight at 4° C. The PBS buffer solution was sucked off from the 96-well plate. The plate was washed 6 times with PBST (pH 7.2, PBS containing 0.1% Tween 20) buffer solution. 200 μL/well PBS/10% BSA was added and incubated at 37° C. for 2 hours for blocking. The blocking solution was removed. The plate was washed 6 times with PBST. 100 μL/well B7H6 antibody to be tested was diluted to an appropriate concentration with PBST/0.05% BSA, and incubated at 37° C. for 1 h. The reaction system was removed. The plate was washed 6 times with PBST. HRP (horseradish peroxidase)-labeled anti-mouse antibody secondary antibody was diluted with PBST/0.05% BSA at 100 μL/well and incubated for 1 h at 37° ° C. The plate was washed 6 times with PBST and 80 μL/well TMB (tetramethylbenzidine) was added. […] The absorbance at […] was read with a microplate reader.

[5] = target: T3, recombinant B7H6 extracellular region …; assay: SPR, Biacore T200, B7H6-Fc amine-coupled to CM5 chip, antibody injected, 1:1 Langmuir model; murine 12F5
Protocol: (§1) The Biacore method is widely-recognized as an objective method for detecting the mutual affinity and binding kinetics of proteins. The affinity and binding kinetics of the B7H6 antibody of the present disclosure are analyzed and characterized through Biacore T200.
(§2) The B7H6 extracellular segment Fc fusion protein (B7H6-Fc) was covalently attached to a CM5 (GE) chip using standard amino coupling methods. A series of concentration gradients of B7H6 antibody diluted in PBS were then injected with each cycle and regenerated with 10 mM NaOH solution. The antigen-antibody binding kinetics were traced for 3 minutes and the dissociation kinetics were traced for 10 minutes, and the resulting data were analyzed by a 1:1 (Langmuir) binding model using GE's BIAevaluation software.

[6] = target: T1, B7H6 protein overexpressed in HL60 cells; assay: flow cytometry on HL60-B7H6 cells, Alexa-647 goat anti-mouse secondary antibody, binding ratio (%)
Protocol: The flow cytometry assay was used to detect the binding characteristics of B7H6 antibody and to overexpress B7H6 protein (HL60-B7H6, SEQ ID NO. 21; SEQ ID NO. 54) in HL60 cells (ATCC NO. CCL-240). The expression vector is pLVX-EF1a-B7H6-IRES-ZsGreen, and the signal strength after antibody addition is used to determine the binding characteristics of the antibody and B7H6.
HL60-B7H6 cells were diluted to 2×10⁶/mL with PBS and were added to a 1.5 ml EP tube at 100 μL/tube. Goat serum at 10 μL/tube was added thereto and was blocked at 4° C. for 30 min. The B7H6 antibody was added at 1 μg/tube and incubated for 30 min at 4° C. The EP tube was added with 1 mL of PBS and centrifuged at 3500 rpm at 4° C. for 5 min. The supernatant was discarded and the precipitate was washed once more with PBS. After centrifugation, the supernatant was discarded, and the cells were resuspended with 100 μl/tube of PBS, and 0.1 μL/tube of goat anti-mouse antibody secondary antibody (Invitrogen) labeled with Alexa-647 was added thereto, and incubated at 4° C., under the condition of avoiding light, for 30 min. The cell-containing precipitate was washed twice with PBS and the supernatant was discarded after centrifugation. The cells were resuspended with 200 μL/tube of PBS and detected by flow cytometry.

[7] = target: T3, recombinant B7H6 extracellular region …; assay: SPR, Biacore T200, B7H6-Fc amine-coupled to CM5 chip, antibody injected, 1:1 Langmuir model; murine 12G4
Protocol: as §1, §2

T2 sequence (chain, as listed by the source limits assumed): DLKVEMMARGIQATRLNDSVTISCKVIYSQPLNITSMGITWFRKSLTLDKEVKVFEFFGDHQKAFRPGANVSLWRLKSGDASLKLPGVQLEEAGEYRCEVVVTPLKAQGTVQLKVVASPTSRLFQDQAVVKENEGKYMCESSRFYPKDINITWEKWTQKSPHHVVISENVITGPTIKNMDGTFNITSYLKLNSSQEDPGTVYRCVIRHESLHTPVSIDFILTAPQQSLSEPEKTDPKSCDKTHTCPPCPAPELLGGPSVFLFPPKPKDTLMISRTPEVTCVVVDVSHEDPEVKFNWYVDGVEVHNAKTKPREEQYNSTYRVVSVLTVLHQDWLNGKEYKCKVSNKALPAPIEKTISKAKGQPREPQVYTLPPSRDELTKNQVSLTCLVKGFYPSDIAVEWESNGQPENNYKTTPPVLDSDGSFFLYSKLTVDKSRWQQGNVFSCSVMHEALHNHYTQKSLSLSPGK

B1: humanized antibody h12G4 (antibody, human IgG1, kappa, V domains shown)
VH: EVQLVQSGAEVKKPGASVKVSCKASGYTFTDYNMDWVRQAPGKGLEWIGDINPNNGGTLYNQKFRGRVTLTVDKSISTAYMELSRLRSDDTAVYYCARSEVFYGNYADYWGQGTTVTVSS
VL: DIVLTQTPLSLSVTPGQPASISCKASQSVDYDGDSYMNWYLQKPGQPPQLLIYAASTLHSGVPDRFSGSGSGTDFTLKISRVEAEDVGVYYCQQSKEDPRTFGQGTKLEIKR
notes: also called humanized 12G4
EC50 (read off the curve) [1]: ~0.05 µg/mL
binding result [2]: binds
EC50 (read off the curve) [3]: ~0.05 µg/mL

B2: humanized antibody h12F5 (antibody, human IgG1, kappa, V domains shown)
VH: EVQLVQSGAEVKKPGASVKVSCKASGYTFTSYYMYWVRQAPGQGLEWIGEINPSNGGTNFNEKFKSRVTLTVDKSISTAYMELSRLRSDDTAVYYCTRTLYYGNDWYFDVWGQGTTVTVSS
VL: EIVLTQSPDFQSVTPKEKVTITCSASSSVNYMHWYQQKPDQSPKRLIYDTSKLASGVPSRFSGSGSGTDYTLTINSLEAEDAATYYCQQWSSNPVTFGQGTKLEIKR
notes: also called humanized 12F5
EC50 (read off the curve) [1]: ~0.03 µg/mL
EC50 (read off the curve) [3]: ~0.02 µg/mL

Results, then the binder that gave them:

EC50 (read off the curve) [4]: ~0.03 µg/mL
Kd [5]: 2.2 nM
EC50 (read off the curve) [6]: ~0.006 µg/mL
B3: murine antibody 12F5 (antibody, mouse IgG2a, kappa, V domains shown)
VH: QVQLQQSGAELVKPGASVKLSCKASGYTFTSYYMYWVKQRPGQGLEWIGEINPSNGGTNFNEKFKSKATLTVDKSSSTAYMQLSSLTSEDSAVYYCTRTLYYGNDWYFDVWGAGTTVTVSS
VL: QIVLTQSPAIMSASPGEKVTMTCSASSSVNYMHWYQQKSGTSPKRWIYDTSKLASGVPARFSGSGSGTSYSLTISSMEAEDAATYYCQQWSSNPVTFGAGTKLELKR
notes: also called murine 12F5; B7H6 murine 12F5 antibody

EC50 (read off the curve) [4]: ~0.03 µg/mL
Kd [7]: 0.15 nM
EC50 (read off the curve) [6]: ~0.01 µg/mL
B4: murine antibody 12G4 (antibody, mouse IgG2a, kappa, V domains shown)
VH: EVLLQQSGPEVVKPGASVKITCKASGYTFTDYNMDWVKQSHGKSLEWIGDINPNNGGTLYNQKFRGRVTLIVDKSSSTAYMELRSLTSDDTAVYYCARSEVFYGNYADYWGQGTTLTVSS
VL: DIVLTQSPVSLAVPLGQRATISCKASQSVDYDGDSYMNWYQQKPGQPPKLLIYAASTLHSGIPVRFSGSGSGTDFTLNIHPVEEEDAASYYCQQSKEDPRTFGGGTKLEIKR
notes: also called murine 12G4
